Several values for one entry are separate records, joined by “and”; a condition that tells them apart may be missing. Equal entries are not always repeated.
B1: Dihydrolipoyllysine-residue succinyltransferase component of 2-oxoglutarate dehydrogenase complex, P0AFG6 (parent)
chain: MSSVDILVPDLPESVADATVATWHKKPGDAVVRDEVLVEIETDKVVLEVPASADGILDAVLEDEGTTVTSRQILGRLREGNSAGKETSAKSEEKASTPAQRQQASLEEQNNDALSPAIRRLLAEHNLDASAIKGTGVGGRLTREDVEKHLAKAPAKESAPAAAAPAAQPALAARSEKRVPMTRLRKRVAERLLEAKNSTAMLTTFNEVNMKPIMDLRKQYGEAFEKRHGIRLGFMSFYVKAVVEALKRYPEVNASIDGDDVVYHNYFDVSMAVSTPRGLVTPVLRDVDTLGMADIEKKIKELAVKGRDGKLTVEDLTGGNFTITNGGVFGSLMSTPIINPPQSAILGMHAIKDRPMAVNGQVEILPMMYLALSYDHRLIDGRESVGFLVTIKELLEDPTRLLLDV

Variants of: B1
Details: Escherichia coli (strain K12), pH 7, structure 1W4H, whole UniProt chain shown
[1] = 10 °C, GdnHCl, Fluorescence, 3-[morpholino]propanesulfonic acid 50 mM, NaCl 200 mM
[2] = Thermal, CD, Potassium phosphate 50 mM, KCl 200 mM
[3] = 10 °C, GdnHCl, CD, 3-[morpholino]propanesulfonic acid 50 mM, NaCl 200 mM

Row | Variant | denaturant m value [1] | unfolding free energy [1] | Tm [2] | ddG of mutation (higher = less stable) [2] | unfolding enthalpy (van 't Hoff) [2] | ddG of mutation (higher = less stable) [3] | denaturant m value [3] | denaturant midpoint (higher = more stable) [3] | unfolding free energy [3]
1 | T142S | 0.53 kcal/mol/M and 0.2 kcal/mol/M | 1.45 kcal/mol | – | – | – | – | – | – | –
2 | D145N | 0.17 kcal/mol/M | – | 13.8 °C | 3.1 kcal/mol | 5 kcal/mol | – | – | – | –
3 | A151G | – | – | 53.2 °C | 0.07 kcal/mol | 21 kcal/mol | – | – | – | –
4 | L127A | 0.41 kcal/mol/M and 0.18 kcal/mol/M | 1.2 kcal/mol | 29.2 °C | 1.9 kcal/mol | 12 kcal/mol | 1.37 kcal/mol | 0.63 kcal/mol/M | 1.95 M | 1.23 kcal/mol
5 | A123G | 0.42 kcal/mol/M and 0.23 kcal/mol/M | 1.81 kcal/mol | 40.8 °C | 1.02 kcal/mol | 20 kcal/mol | 0.93 kcal/mol | 0.72 kcal/mol/M | 2.55 M | 1.84 kcal/mol
6 | I132V | 0.47 kcal/mol/M | – | 44.4 °C | 0.75 kcal/mol | 22 kcal/mol | 0.7 kcal/mol | 0.73 kcal/mol/M | 2.88 M | 2.1 kcal/mol
7 | S115G | 0.21 kcal/mol/M | 2.31 kcal/mol | 53.6 °C | 0.47 kcal/mol | 21 kcal/mol | 0.57 kcal/mol | 0.7 kcal/mol/M | 3.05 M | 2.14 kcal/mol
8 | A129G | 0.5 kcal/mol/M and 0.2 kcal/mol/M | 2.22 kcal/mol | 46.5 °C | 0.58 kcal/mol | 22 kcal/mol | 0.56 kcal/mol | 0.72 kcal/mol/M | 3.07 M | 2.21 kcal/mol
9 | H125W | – | 2.55 kcal/mol | 54.1 °C | – | 25 kcal/mol | – | 0.7 kcal/mol/M | 3.96 M | 2.77 kcal/mol
10 | L121A | 0.46 kcal/mol/M and 0.16 kcal/mol/M | 0.9 kcal/mol | 32.2 °C | 1.67 kcal/mol | 16 kcal/mol | 1.6 kcal/mol | 0.64 kcal/mol/M | 1.63 M | 1.04 kcal/mol
11 | A117G | – | – | 49.4 °C | 0.37 kcal/mol | 23 kcal/mol | – | – | – | –
12 | A131G | 0.43 kcal/mol/M and 0.28 kcal/mol/M | 2.44 kcal/mol | 48.5 °C | 0.43 kcal/mol | 21 kcal/mol | 0.52 kcal/mol | 0.71 kcal/mol/M | 3.12 M | 2.22 kcal/mol
13 | I118A | 0.46 kcal/mol/M and 0.2 kcal/mol/M | 1.18 kcal/mol | – | – | – | 1.24 kcal/mol | 0.65 kcal/mol/M | 2.09 M | 1.36 kcal/mol
14 | I118V | – | – | 53.8 °C | 0.03 kcal/mol | 26 kcal/mol | – | – | – | –
15 | L141A | 0.48 kcal/mol/M | 0.46 kcal/mol | 26.4 °C | 2.12 kcal/mol | 10 kcal/mol | – | – | – | –
16 | A113G | – | – | 53.6 °C | 0.04 kcal/mol | 23 kcal/mol | – | – | – | –
17 | L150A | – | 2.13 kcal/mol and 1.46 kcal/mol | – | 0.57 kcal/mol and 1.18 kcal/mol | 23 kcal/mol and 18 kcal/mol | 0.6 kcal/mol and 0.74 kcal/mol | 0.71 kcal/mol/M and 0.69 kcal/mol/M | 3.02 M and 1.98 M | 2.14 kcal/mol and 1.37 kcal/mol
18 | V137G | 0.47 kcal/mol/M and 0.24 kcal/mol/M | 2.03 kcal/mol | 43.1 °C | 0.84 kcal/mol | 18 kcal/mol | 0.98 kcal/mol | 0.73 kcal/mol/M | 2.49 M | 1.82 kcal/mol
19 | V146A | 0.48 kcal/mol/M and 0.16 kcal/mol/M | 0.47 kcal/mol | 27.9 °C | 2.02 kcal/mol | 9 kcal/mol | – | – | – | –
20 | L114W | – | 2.22 kcal/mol | – | – | – | – | 0.67 kcal/mol/M | 3.15 M | 2.11 kcal/mol
21 | L114A | 0.5 kcal/mol/M and 0.18 kcal/mol/M | 1.7 kcal/mol | 41.9 °C | 0.94 kcal/mol | 20 kcal/mol | 0.9 kcal/mol | 0.71 kcal/mol/M | 2.6 M | 1.85 kcal/mol
22 | T135S | – | – | 50.4 °C | 0.29 kcal/mol | 21 kcal/mol | – | – | – | –
23 | T135A | – | 0.78 kcal/mol | 36.4 °C | 1.36 kcal/mol | 9 kcal/mol | 1.68 kcal/mol | 0.69 kcal/mol/M | 1.51 M | 1.04 kcal/mol
24 | P116A | – | – | 59.1 °C | -0.38 kcal/mol | 24 kcal/mol | – | – | – | –
25 | H149A | – | – | 55 °C | -0.06 kcal/mol | 22 kcal/mol | – | – | – | –
26 | H149G | 0.45 kcal/mol/M and 0.21 kcal/mol/M | 0.93 kcal/mol | 33.9 °C | 1.58 kcal/mol | 8 kcal/mol | 1.87 kcal/mol | 0.64 kcal/mol/M | 1.25 M | 0.8 kcal/mol

Reference: FireProtDB (doi:10.1016/j.jmb.2009.05.011)
